B1: VHH H11D4 (VHH)
VHH: QVQLVESGGGLMQAGGSLRLSCAVSGRTFSTAAMGWFRQAPGKEREFVAAIRWSGGSAYYADSVKGRFTISRDKAKNTVYLQMNSLKYEDTAVYYCARTENVRSLLSDYATWPYDYWGQGTQVTVSS
notes: also called VHH11D4
B2: VHH-72 (VHH)
VHH: QVQLQESGGGLVQAGGSLRLSCAASGRTFSEYAMGWFRQAPGKEREFVATISWSGGSTYYTDSVKGRFTISRDNAKNTVYLQMNSLKPDDTAVYYCAAAGLGTVVSEWDYDYDYWGQGTQVTVSS

Biological target: receptor binding domain (RBD) of the SARS-CoV-2 spike (SARS-CoV-2, UniProt P0DTC2, biotin (biotinylated; site not stated))
Experiment: BLI
Details: both partners purified

Binder	binding result
B1	binds
B2	binds

Source: publication PMC9481167, “Biosynthetic proteins targeting the SARS-CoV-2 spike as anti-virals” (PLoS Pathogens, 2022)
